One assay addresses T1, Human soluble IL-6R (human, UniProt P08887 20-358).
T1 construct: Soluble recombinant form; biotinylated in some assays; also called hIL-6R; human IL-6R
T1 sequence (looked up): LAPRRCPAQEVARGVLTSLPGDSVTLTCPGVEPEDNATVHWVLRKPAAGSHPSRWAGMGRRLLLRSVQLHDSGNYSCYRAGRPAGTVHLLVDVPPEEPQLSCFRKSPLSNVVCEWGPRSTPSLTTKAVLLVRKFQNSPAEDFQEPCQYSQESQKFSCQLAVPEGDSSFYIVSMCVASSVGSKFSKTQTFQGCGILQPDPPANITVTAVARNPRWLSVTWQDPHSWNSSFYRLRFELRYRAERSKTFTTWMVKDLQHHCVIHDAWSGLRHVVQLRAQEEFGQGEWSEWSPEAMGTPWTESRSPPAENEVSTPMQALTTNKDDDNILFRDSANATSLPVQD
Briefly: Biacore T100, IL-6R captured via mAb BN-12.

The target of a further assay is T2, IL-11R/Fc (UniProt Q14626 23-370).
T2 construct: not shown: Fc part, not described
T2 sequence (looked up): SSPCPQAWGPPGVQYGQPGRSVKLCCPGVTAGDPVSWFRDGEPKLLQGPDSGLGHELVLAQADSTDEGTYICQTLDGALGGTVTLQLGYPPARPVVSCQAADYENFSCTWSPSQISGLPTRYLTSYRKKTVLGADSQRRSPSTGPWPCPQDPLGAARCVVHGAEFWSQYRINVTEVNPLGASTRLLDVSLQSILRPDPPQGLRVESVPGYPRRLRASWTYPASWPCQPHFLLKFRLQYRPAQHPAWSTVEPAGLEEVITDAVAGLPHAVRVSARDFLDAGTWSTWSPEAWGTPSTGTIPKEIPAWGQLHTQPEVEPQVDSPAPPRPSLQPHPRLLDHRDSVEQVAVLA
Briefly: competitive binding ELISA: IL6R20A11 (0.05 nM) pre-incubated with a series of the receptor; free IL6R20A11 captured on sIL-6R and detected via anti-His.

In another assay the target is T3, OSM-R (UniProt Q99650 28-739, limits assumed).
T3 sequence (looked up): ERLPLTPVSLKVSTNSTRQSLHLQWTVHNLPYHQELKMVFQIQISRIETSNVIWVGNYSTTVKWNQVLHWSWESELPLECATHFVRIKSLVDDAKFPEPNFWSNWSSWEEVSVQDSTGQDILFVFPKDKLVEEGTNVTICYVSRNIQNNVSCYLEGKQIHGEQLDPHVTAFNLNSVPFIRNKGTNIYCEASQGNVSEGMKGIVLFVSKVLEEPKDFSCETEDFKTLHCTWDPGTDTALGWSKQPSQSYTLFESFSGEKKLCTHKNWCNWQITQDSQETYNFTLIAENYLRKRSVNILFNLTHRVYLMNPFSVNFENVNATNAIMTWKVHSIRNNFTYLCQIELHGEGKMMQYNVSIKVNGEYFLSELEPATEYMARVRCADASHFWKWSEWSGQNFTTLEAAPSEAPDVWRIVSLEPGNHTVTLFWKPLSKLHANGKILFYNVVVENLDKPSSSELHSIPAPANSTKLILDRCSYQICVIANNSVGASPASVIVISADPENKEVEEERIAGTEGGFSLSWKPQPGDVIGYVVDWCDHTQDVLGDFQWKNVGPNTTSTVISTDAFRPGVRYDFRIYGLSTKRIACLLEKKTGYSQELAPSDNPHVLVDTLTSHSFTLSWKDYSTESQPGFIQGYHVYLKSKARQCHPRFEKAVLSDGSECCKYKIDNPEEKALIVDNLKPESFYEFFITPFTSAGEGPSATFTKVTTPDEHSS
The assay is described as above.

A further assay deals with T4, CNTF-R (UniProt P26992 23-346, limits assumed).
T4 sequence (looked up): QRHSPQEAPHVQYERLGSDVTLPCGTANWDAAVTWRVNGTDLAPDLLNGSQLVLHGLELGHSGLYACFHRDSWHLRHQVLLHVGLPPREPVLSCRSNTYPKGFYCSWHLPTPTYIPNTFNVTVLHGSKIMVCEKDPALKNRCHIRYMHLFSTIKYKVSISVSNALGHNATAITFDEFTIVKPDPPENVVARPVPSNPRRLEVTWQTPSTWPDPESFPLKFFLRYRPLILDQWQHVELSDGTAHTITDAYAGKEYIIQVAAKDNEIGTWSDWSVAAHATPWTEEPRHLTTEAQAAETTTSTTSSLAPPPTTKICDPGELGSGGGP
The assay is described as above.

In assay [1] the target is T5, Human plasma sIL-6R (human, UniProt P08887 20-355, limits assumed).
T5 construct: also called plasma-derived human IL-6R
T5 sequence (looked up): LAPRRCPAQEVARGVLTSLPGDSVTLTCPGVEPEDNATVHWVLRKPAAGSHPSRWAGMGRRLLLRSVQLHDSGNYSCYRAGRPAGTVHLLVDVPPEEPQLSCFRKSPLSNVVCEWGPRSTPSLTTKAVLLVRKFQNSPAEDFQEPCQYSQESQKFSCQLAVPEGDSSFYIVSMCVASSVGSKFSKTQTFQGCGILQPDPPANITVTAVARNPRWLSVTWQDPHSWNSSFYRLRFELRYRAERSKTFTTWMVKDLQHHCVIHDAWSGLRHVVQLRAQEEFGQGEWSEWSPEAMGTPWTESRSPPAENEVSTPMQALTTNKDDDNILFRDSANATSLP
The experiment in a line: plasma potency ELISA, human plasma, normal IL-6 (EC50).

The target of assay [2] is T5, Human plasma sIL-6R. The experiment in a line: plasma potency assay, human plasma, 2.4 nM IL6; blocked ligand IL-6.

B1: PMP20A11 (VHH)
VHH: EVQLVESGGGLVQPGGSLRLSCAASGSVFKINVMAWYRQAPGKGRELVAGIISGGSTSYADSVKGRFTISRDNAKNTLYLQMNSLRPEDTAVYYCAFITTESDYDLGRRYWGQGTLVTVSS
notes: also called IL6R20A11; IL6R300; not shown: c-myc and (His)6 tags
Molecule B1 had a kon in the assay with Human soluble IL-6R of 1e+06 M⁻¹ s⁻¹. The binding result with IL-11R/Fc, with OSM-R and with CNTF-R was “no binding (tested: 5 nM (log conc 0.7))” in each case. Moreover, the IC50 with Human plasma sIL-6R [1] was 0.198 nM; in the assay with Human plasma sIL-6R [2], 0.09 nM.

These data come from US20120077731A1 (Ablynx, published 2012).
